The data set is described as follows: protein stability index of a GFP-peptide fusion (GPS, HEK-293T) (PSI 1-6); higher = more stable.
Where [1] appears, read: treatment: DMSO, c terminus: a fixed tail appended.
Setting [2] is: treatment: MLN4924 1 uM, 8 h, c terminus: a fixed tail appended.

± gives the standard deviation.
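Further: 24-mer peptide tiles fused after GFP, lentivirally expressed, FACS-sorted into six equal bins by GFP/DsRed ratio, decoded by Illumina sequencing, PSI is the read-weighted mean bin number.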

In the case of FRGRRDVSGSWERDQQVEAAQRAL [RETREG3], the protein stability index by setting is: under setting [1], 4.48 ± 0.27; under setting [2], 4.28 ± 0.23. As to FRIIDSDHSGFISLDEFRQTWKLF [PPEF2], the protein stability index reads like this: under setting [1], 2.97 ± 1; under setting [2], 2.37 ± 0.48.

FRNLVADRVLNYTSWSQHCPWEPQ [SPAG8]: the protein stability index amounted to 2.21 ± 0.21 under setting [1] and 2.36 ± 0.23 under setting [2]. Take FRPEMKKHSWCLKRKNPPNERTV [N4BP2L1]: the protein stability index reads like this: (treatment: DMSO, c terminus: native) 3.06 ± 0.2; (treatment: MLN4924 1 uM, 8 h, c terminus: native) 3.04 ± 0.68. Consider FRQFGYQDSPGPHEALSRLWELCH [ZNF396], for which the protein stability index was 2.28 ± 0.28 under setting [1] and 2.31 ± 0.24 under setting [2]. For FSEPSFITESYQTLHPISSEELLS [ETS1] the same measures were 2.77 ± 0.4 and 3.28 ± 0.41. Consider FSINSRLASSLGNLNAATDDPENK [CDC14A], for which the protein stability index under setting [1] is 5.08 ± 0.26 and the protein stability index under setting [2] amounted to 5.1 ± 0.39.

For the sequence FSRAGISEAQLTDAETSKLIYDFI [WAS], the protein stability index by setting is: under setting [1], 2.57 ± 0.2; under setting [2], 2.95 ± 0.29. The corresponding values for FTFPGMSLDKRQGEGLRIYWGSPE [TPRG1] are 2.25 ± 0.35 and 2.38 ± 0.53.

With FVTGNCLEISPDCSQYDRVYCGAG [PCMTD2], the protein stability index by setting is: under setting [1], 2.43 ± 0.19; under setting [2], 2.33 ± 0.14. The corresponding values for FWDFAQGPLLDSLYWTKWYNNQSL [PKD2L1] are 2.3 ± 0.77 and 2.76 ± 0.94. FWKKYRTFWKEDKAFWKEDNALWE [CCDC70]: the protein stability index reads like this: under setting [1], 2.54 ± 0.49; under setting [2], 2.26 ± 0.36. For FYDKQLKVLLSGATFLVTFGNSEK [ZFYVE21] the same measures were 2.45 ± 0.67 and 2.54 ± 0.54.

In the case of GAGAEESELQAYIAQCQDSPTSGK [MCOLN1], the protein stability index reads like this: under setting [1], 5.41 ± 0.14; under setting [2], 5.45 ± 0.17. For the sequence GAGAGAPGGGRLLLSTSLDAKDEL [INTS3], the protein stability index reads like this: under setting [1], 5.04 ± 0.27; under setting [2], 5.08 ± 0.068. In the case of GAGEGAAASPELSALEEAFRRFAV [TPPP], the protein stability index by setting is: under setting [1], 3.58 ± 0.58; under setting [2], 3.74 ± 0.44. For GAGRRRRAGGPPRPMSEPGAGAGS [SMAD6] the same measures were 5.22 ± 0.41 and 5.21 ± 0.14. In turn, GAHKDCQVAPLTHVFQRQKSELSD [TRIM55] returned a protein stability index under setting [1] of 4.73 ± 0.34 and a protein stability index under setting [2] of 4.83 ± 0.16. The corresponding values for GAKMTERGSVARPTQGPETPRSPE [PXN] are 5.59 ± 0.13 and 5.38 ± 0.26.

With GASFTQKGNLLRHIKLHSGEKPFK [IKZF1], the protein stability index is 3.77 ± 0.23 under setting [1] and 3.72 ± 0.28 under setting [2]. As to GCQVSPEGYAHLTHLLMGLASGRI [HDAC6], the protein stability index is, setting by setting: under setting [1], 2.46 ± 0.89; under setting [2], 2.57 ± 0.53. The corresponding values for GCSAVLSGGSSSSFRAGSKGLSGG [KRT71] are 3.45 ± 0.14 and 3.48 ± 0.2. The corresponding values for GDSDSALDSVSPCPSSPKQIHLDV [DLC1] are 4.8 ± 0.37 and 4.66 ± 0.35. For GEKPFECRQRLIFEQTPALTKHEW [ZNF8] the same measures were 3.04 ± 0.85 and 2.93 ± 0.18.

For GEKPYECQDCGRAFNQNSSLGRHK [ZNF8], the protein stability index reads like this: under setting [1], 3.19 ± 0.47; under setting [2], 3.69 ± 0.23.

GELLGEARYYLVQGLIEDCQLALQ [KCTD13]: the protein stability index reads like this: under setting [1], 2.15 ± 0.64; under setting [2], 2.3 ± 0.28. The corresponding values for GELLLDVAWHPVRPIIASISSGVV [RBBP5] are 2.3 ± 0.54 and 2.42 ± 0.59. For GENSDGCYEHFAELDIPQSVQQNG [CLPTM1] the same measures were 5 ± 0.33 and 5.01 ± 0.32.

With GFCFFNSVAVAARHAQTISGHALR [HDAC6], the protein stability index is, setting by setting: under setting [1], 2.25 ± 0.43; under setting [2], 1.76 ± 0.28.

With GFPGERTYNTKVYKMFASRRKQRY [LOXL2], the protein stability index runs as follows: under setting [1], 2.72 ± 0.42; under setting [2], 2.98 ± 0.51. The corresponding values for GGACPAFLPSLRPPPLTSPSHGSL [NCF4] are 3.59 ± 0.092 and 3.71 ± 0.28. The corresponding values for GGGEGKAMYIDTEGTFRPERLLAV [RAD51] are 2.69 ± 0.32 and 2.9 ± 0.37. Regarding GGGGGGLPISTVREVALLRRLEAF [CDK4], the protein stability index came out at 3.19 ± 0.3 under setting [1] and 3.23 ± 0.34 under setting [2]. For GGNPFAEPSELDNPFQDPAVIQHR [SCAMP3] the same measures were 4.67 ± 0.14 and 4.98 ± 0.17.

With GHLFPPPTPIFAGGANDRWVRSVS [WSB1], the protein stability index under setting [1] turned out to be 2.66 ± 0.18 and the protein stability index under setting [2] was determined as 2.39 ± 0.4. For GHPVGLALEAAVHVQKLSQECLKQ [TRIM14] the same measures were 3.07 ± 0.2 and 3.14 ± 0.28. The corresponding values for GHTPLMEAGSAGHVEVARLLLENG [ANKRD17] are 4.22 ± 0.24 and 4.17 ± 0.24. For GIEHAQCVPPSEFSEPSFITESYQ [ETS1] the same measures were 4.44 ± 0.12 and 4.15 ± 0.3. Consider GIKTVIVNMVDVAKALNRPPTYPT [EIF5], for which the protein stability index under setting [1] was 2.32 ± 0.48 and the protein stability index under setting [2] turned out to be 2.4 ± 0.59.

Consider GIKVQNGGIVTDTPASNHLPGWED [SLC19A2], for which the protein stability index reads like this: under setting [1], 4.4 ± 0.23; under setting [2], 4.77 ± 0.28. For GKPPTAHLDRTSVSSLSEVEEVDM [ELOA2] the same measures were 5.51 ± 0.11 and 5.41 ± 0.29. For GKTAASWCLHVNNWLQVSFTAKHA [FSD1] the same measures were 3.23 ± 0.46 and 3.09 ± 0.76. With GLANGLQLLCPWAPLSGPQALMLP [VENTX], the protein stability index by setting is: under setting [1], 2.01 ± 0.31; under setting [2], 2.1 ± 0.36.

For the sequence GLETGDWGGAPKEGSIWRGAQMEK [ZSWIM9], the protein stability index stood at 4.07 ± 0.3 under setting [1] and 4.45 ± 0.22 under setting [2]. The corresponding values for GLETLFSKAQELGGAGREDPGLWS [ZSWIM9] are 3.18 ± 0.5 and 3.39 ± 0.23.

For GLGRPTPGLSQGPGKETLESALIA [EHMT1], the protein stability index came to 3.95 ± 0.13 under setting [1] and 4.29 ± 0.22 under setting [2]. The corresponding values for GLKGRTLYPAVSAVWGQCQVRIRY [SPSB2] are 2.98 ± 0.77 and 2.67 ± 0.56.

As to GLLDLNNAILQLVKKYKSMKLEKE [ESRRG], the protein stability index by setting is: under setting [1], 2.65 ± 0.14; under setting [2], 2.9 ± 0.82.

Regarding GLLNDTSAPHLENSGHTIFNDPFF [KCNA4], the protein stability index was determined as 4.17 ± 0.19 under setting [1] and 4.28 ± 0.28 under setting [2]. For GLQDTITAELVVIEDAAEPKEPAP [PALM] the same measures were 5.06 ± 0.19 and 5.1 ± 0.18. Turning to GLSAGYVDAGAEPGRSRMISQEEF [LPCAT4], the protein stability index turned out to be 4.47 ± 0.32 under setting [1] and 4.78 ± 0.23 under setting [2]. For GLSPEEKEQLSNDRETQEGKPPTA [ELOA2] the same measures were 5.6 ± 0.22 and 5.31 ± 0.46. The corresponding values for GLTFLLPFLFFGHFWQLFNALTLF [TMEM120A] are 2.85 ± 0.11 and 2.63 ± 0.052. The corresponding values for GMQMAEDSKSLKTHQTQPGIRRAR [NET1] are 4.78 ± 0.36 and 4.69 ± 0.46. On to GMRDADYIAAFLHVLLPVALEFQP [HDAC6], for which the protein stability index by setting is: under setting [1], 3.02 ± 0.47; under setting [2], 2.96 ± 0.42. The corresponding values for GNSISISALQSLLQHLIGLSNLTH [PRAME] are 2.54 ± 0.036 and 2.62 ± 0.41. For GNSRSAPPTRGPPPSYGGSSRYDD [RBMX] the same measures were 4.94 ± 0.34 and 5.05 ± 0.15.

Take GPIPSHMIHRTRKQKYFYKGGLVW [CLK3]: the protein stability index turned out to be 2.47 ± 0.027 under setting [1] and 2.45 ± 0.24 under setting [2]. For GPMRPEQFSDEVEPATPEEGEPAT [GAGE1] the same measures were 5.39 ± 0.2 and 5.266 ± 0.044. The corresponding values for GPRFGPRNDKIKHVQNQVDEVIDV [VAMP4] are 4.24 ± 0.49 and 4.63 ± 0.22. As to GPRFLAYFGSFATVGLLWFAHHSL [TMEM175], the protein stability index turned out to be 3.17 ± 0.2 under setting [1] and 3 ± 0.27 under setting [2]. As for GQRLAVCVPAHPPPCAWACPVPAH [CTBP1-DT], the protein stability index reads like this: under setting [1], 2.7 ± 0.39; under setting [2], 2.8 ± 0.1. For GREEKCVWKHGITPPLKNVRKKRF [TAF7L] the same measures were 3.98 ± 0.34 and 4.03 ± 0.41.

In the case of GSDAEQSTSGQPYPTSDQEGDPGS [LCOR], the protein stability index was 5.53 ± 0.35 under setting [1] and 5.59 ± 0.28 under setting [2].

Under setting [1], GSKVTCRGLLEYFKAYIKIYQGED [ATL3] displayed a protein stability index of 2.31 ± 0.14. Consider GSKYYNVEAMYCYLRCIQSEVSFE [SMG5], for which the protein stability index is, setting by setting: under setting [1], 3.05 ± 0.94; under setting [2], 2.1 ± 0.68. For GSLDLVPGGLTLEEHSLEQVQSMV [SPDEF] the same measures were 4.35 ± 0.38 and 4.66 ± 0.21. The corresponding values for GSRSNGMWAHSMTVQDYQDLIDRG [ATE1] are 3.92 ± 0.29 and 4.08 ± 0.29. The corresponding values for GTKQGHLLLYRIRKDVGCNRFEVT [VPS39] are 2.12 ± 0.37 and 2.41 ± 0.28. In the case of GTLDNSKSMKPYNYCSAYESFYES [NEUROD6], the protein stability index by setting is: under setting [1], 3.02 ± 0.41; under setting [2], 3.12 ± 0.35. Turning to GTTYLPGIVGLNNIKANDYANAVL [USP39], the protein stability index by setting is: under setting [1], 2.47 ± 0.097; under setting [2], 2.44 ± 0.23. For GVADFSATYLRCQLLLIKALQEKL [INTS4] the same measures were 2.77 ± 0.42 and 2.65 ± 0.48.

The values above are taken from the supplement of paper PMC10567573.
